Laboratory results from publication PMC9832913.

Target: human A2A adenosine receptor (A2AAR), residues 1-316, N154Q (human) (UniProt P29274)
Assay: SEC

Chain of UniProt P29274 (P29274 1-316 N154Q): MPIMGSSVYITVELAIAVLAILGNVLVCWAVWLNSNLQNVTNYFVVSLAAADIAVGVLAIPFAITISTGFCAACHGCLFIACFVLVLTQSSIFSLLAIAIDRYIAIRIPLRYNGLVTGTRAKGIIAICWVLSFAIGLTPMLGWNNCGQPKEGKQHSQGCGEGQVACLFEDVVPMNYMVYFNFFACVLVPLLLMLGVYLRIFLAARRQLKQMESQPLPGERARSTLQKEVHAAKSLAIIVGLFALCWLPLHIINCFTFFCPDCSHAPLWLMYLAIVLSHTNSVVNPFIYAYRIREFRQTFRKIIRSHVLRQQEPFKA

percent of the receptor in complex: 95%
Substance: mini-Gs, an engineered variant of the Gs protein α-subunit
